The values below come from article PMC11930087, “Mobility of four structural regions drives isoform-specific properties of photoenzyme LPOR in plants” (The Journal of Biological Chemistry, 2025).

This data set deals with the molecule itself. The data set can be described thus: negative-stain transmission electron microscopy; reaction mixtures of 5 μM Pchlide, 15 μM AtPORB, 200 μM NADPH and either 100 μM lowMGDG lipid mixture (2.5 mol% MGDG, 47.5 mol% PG, 50 mol% DGDG) or OPT lipids; filaments seen.

B1: light-dependent protochlorophyllide oxidoreductase B from Arabidopsis thaliana (enzyme)
chain: QTAATSSPTVTKSVDGKKTLRKGNVVVTGASSGLGLATAKALAETGKWNVIMACRDFLKAERAAKSVGMPKDSYTVMHLDLASLDSVRQFVDNFRRTETPLDVLVCNAAVYFPTAKEPTYSAEGFELSVATNHLGHFLLARLLLDDLKKSDYPSKRLIIVGSITGNTNTLAGNVPPKANLGDLRGLAGGLNGLNSSAMIDGGDFDGAKAYKDSKVCNMLTMQEFHRRFHEETGVTFASLYPGCIASTGLFREHIPLFRALFPPFQKYITKGYVSETESGKRLAQVVSDPSLTKSGVYWSWNNASASFENQLSEEASDVEKARKVWEISEKLVGLA
notes: LPOR B of Arabidopsis thaliana, P21218; probably without the transit peptide, as the constructs cloned here; In the assays it stood with Pchlide, NADPH and lipids; also called AtPORB; LPOR
On to B1, for which the binding result is “binds”.
